One molecule from article PMC5362243, “A rare IL33 loss-of-function mutation reduces blood eosinophil counts and protects from asthma” (PLoS Genetics, 2017) can be followed below.

In this assay the target is T1, Human ST2-Flag-His (recombinant IL-33R, extracellular domain) (human, UniProt Q01638-1 19-328).
T1 construct: human ST2 (IL1RL1, IL-33 receptor), recombinant protein encompassing the extracellular domain; Captured on the chip through its His tag by an immobilised penta-His antibody; also called IL-33R/ST2; IL1RL1; source: prepared by Amgen
T1 sequence (looked up): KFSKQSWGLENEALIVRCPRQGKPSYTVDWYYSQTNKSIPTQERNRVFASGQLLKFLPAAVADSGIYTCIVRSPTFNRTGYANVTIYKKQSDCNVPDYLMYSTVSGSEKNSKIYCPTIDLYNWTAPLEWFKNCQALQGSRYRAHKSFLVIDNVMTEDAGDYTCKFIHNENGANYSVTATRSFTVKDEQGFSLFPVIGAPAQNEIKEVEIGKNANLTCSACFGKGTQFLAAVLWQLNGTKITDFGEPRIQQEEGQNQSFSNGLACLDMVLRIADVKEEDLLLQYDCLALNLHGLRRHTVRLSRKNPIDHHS
Put plainly: SPR; Biacore T200, CM5 chip; human ST2-Flag-His captured by amine-coupled penta-His antibody; IL-33 variants injected at 200 nM (180 s association, 300 s dissociation); 25°C, HBS-P (10 mM HEPES pH 7.4, 150 mM NaCl, 0.05% P20); single replicate. The settings on record: both partners purified. In general terms: Surface plasmon resonance follows binding to a sensor surface in real time, without labels.

B1: IL-33 (95-270), wild type cytokine domain (domain or fragment, human, UniProt O95760-1 95-270, looked up)
chain: AFGISGVQKYTRALHDSSITGISPITEYLASLSTYNDQSITFALEDESYEIYVEDLKKDEKKDKVLLSYYESQHPSNESGDGVDGKMLMVTLSPTKDFWLHANNKEHSVELHKCEKPLPDQAFFVLHNMHSNCVSFECKTDPGVFIGVKDNHLALIKVDSSENLCTENILFKLSET
notes: human interleukin-33, residues 95-270 of the 270-residue protein, released by thrombin cleavage from a poly-His fusion (pET24a); Start at residue 95 chosen after the natural processing of IL-33; also called wild type IL-33 (95–270); IL-33 (95–270) (Amgen); source: E. coli, purified (nickel HisTrap, SEC, thrombin cleavage, SEC); not shown: poly-His, N-terminal, cleaved
Turning to B1, the binding result is recorded as “binds”.
